In patent US20020165135A1 (HESKA, published 2002):

Target: T1, recombinant canine IL-13 (canine, UniProt Q9N0W9 21-131, limits assumed)
T1 sequence (looked up): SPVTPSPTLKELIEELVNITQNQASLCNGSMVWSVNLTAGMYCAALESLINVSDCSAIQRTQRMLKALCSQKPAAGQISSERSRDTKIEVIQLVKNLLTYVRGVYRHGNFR
Assay: cell-based or functional assay

Percent inhibition of IL-13 stimulated TF-1 cell proliferation; IL-13 at 10 ng/ml; fusion protein 6.6 ug/ml; refolding condition 1A: 30.9%
Percent inhibition of IL-13 stimulated TF-1 cell proliferation; IL-13 at 10 ng/ml; fusion protein 6.6 ug/ml; refolding condition 1B: 43.7%
Percent inhibition of IL-13 stimulated TF-1 cell proliferation; IL-13 at 10 ng/ml; fusion protein 6.6 ug/ml; refolding condition 1C: 100%
Percent inhibition of IL-13 stimulated TF-1 cell proliferation; IL-13 at 10 ng/ml; fusion protein 6.6 ug/ml; refolding condition 1D: 99.8%
Percent inhibition of IL-13 stimulated TF-1 cell proliferation; IL-13 at 10 ng/ml; fusion protein 6.6 ug/ml; refolding condition 2A: 35.1%
Percent inhibition of IL-13 stimulated TF-1 cell proliferation; IL-13 at 10 ng/ml; fusion protein 6.6 ug/ml; refolding condition 2B: 18%
Percent inhibition of IL-13 stimulated TF-1 cell proliferation; IL-13 at 10 ng/ml; fusion protein 6.6 ug/ml; refolding condition 2C: 16%
Percent inhibition of IL-13 stimulated TF-1 cell proliferation; IL-13 at 10 ng/ml; fusion protein 6.6 ug/ml; refolding condition 2D: 7.5%
Percent inhibition of IL-13 stimulated TF-1 cell proliferation; IL-13 at 10 ng/ml; fusion protein 6.6 ug/ml; refolding condition 3A: 81.3%
Percent inhibition of IL-13 stimulated TF-1 cell proliferation; IL-13 at 10 ng/ml; fusion protein 6.6 ug/ml; refolding condition 3B: 96.3%
Percent inhibition of IL-13 stimulated TF-1 cell proliferation; IL-13 at 10 ng/ml; fusion protein 6.6 ug/ml; refolding condition 3C: 98.9%
Percent inhibition of IL-13 stimulated TF-1 cell proliferation; IL-13 at 10 ng/ml; fusion protein 6.6 ug/ml; refolding condition 3D: 49.9%
Percent inhibition of IL-13 stimulated TF-1 cell proliferation; IL-13 at 50 ng/ml; fusion protein 6.6 ug/ml; refolding condition 1A: 29.4%
Percent inhibition of IL-13 stimulated TF-1 cell proliferation; IL-13 at 50 ng/ml; fusion protein 6.6 ug/ml; refolding condition 1B: 34.6%
Percent inhibition of IL-13 stimulated TF-1 cell proliferation; IL-13 at 50 ng/ml; fusion protein 6.6 ug/ml; refolding condition 1C: 92.3%
Percent inhibition of IL-13 stimulated TF-1 cell proliferation; IL-13 at 50 ng/ml; fusion protein 6.6 ug/ml; refolding condition 1D: 31.7%
Percent inhibition of IL-13 stimulated TF-1 cell proliferation; IL-13 at 50 ng/ml; fusion protein 6.6 ug/ml; refolding condition 2A: 19.7%
Percent inhibition of IL-13 stimulated TF-1 cell proliferation; IL-13 at 50 ng/ml; fusion protein 6.6 ug/ml; refolding condition 2B: 24%
Percent inhibition of IL-13 stimulated TF-1 cell proliferation; IL-13 at 50 ng/ml; fusion protein 6.6 ug/ml; refolding condition 2C: 11.9%
Percent inhibition of IL-13 stimulated TF-1 cell proliferation; IL-13 at 50 ng/ml; fusion protein 6.6 ug/ml; refolding condition 2D: 28.8%
Percent inhibition of IL-13 stimulated TF-1 cell proliferation; IL-13 at 50 ng/ml; fusion protein 6.6 ug/ml; refolding condition 3A: 44.7%
Percent inhibition of IL-13 stimulated TF-1 cell proliferation; IL-13 at 50 ng/ml; fusion protein 6.6 ug/ml; refolding condition 3B: 92.5%
Percent inhibition of IL-13 stimulated TF-1 cell proliferation; IL-13 at 50 ng/ml; fusion protein 6.6 ug/ml; refolding condition 3C: 95.4%
Percent inhibition of IL-13 stimulated TF-1 cell proliferation; IL-13 at 50 ng/ml; fusion protein 6.6 ug/ml; refolding condition 3D: 32.7%
B1: PCaIL-13Rα2-Fc-B9563 (Fc fusion)
chain: MSMLSNAEIKVNPPQDFEIVDPGYLGYLSLQWQPPLFPDNFKECTIEYELKYRNIDSENWKTIITKNLHYKDGFDLNKGIEAKINTLLPAQCTNGSEVRSSWAETTYWTSPQGNRETKIQDMDCVYYNWQYLVCSWKPGMGVHFDTNYQLFYWYEGLDHSAECTDYIKVNGKNMGCRFPYLESSDYKDFYICVNGSSESQPIRPSYFIFQLQNIVKPMPPDYLSLTVKNSEEINLKWNMPKGPIPAKCFIYEIEFTEDGTTWVTTTVENEIQITRTSNESQKLCFLVRSKVNIYCSDDGIWSEWSDEQCWKGDIWKETGSNTKVDKPVAKECECKCNCNNCPCPGCGLLGGPSVFIFPPKPKDILVTARTPTVTCVVVDLDPENPEVQISWFVDSKQVQTANTQPREEQSNGTYRVVSVLPIGHQDWLSGKQFKCKVNNKALPSPIEEIISKTPGQAHQPNVYVLPPSRDEMSKNTVTLTCLVKDFFPPEIDVEWQSNGQQEPESKYRMTPPQLDEDGSYFLYSKLSVDKSRWQRGDTFICAVMHEALHNHYTQISLSHSPGK
